Measured values as given in article PMC12269619.

Legend:
PfCSPm [1] = assay: BLI; KD2, second site
[2] = molecular target: Biotinylated junctional peptide NPDP19 (Plasmodium falciparum (clone 3D7)) (UniProt Q7K740); assay: BLI
PfCSPm [3] = assay: BLI; KD1

CIS43 mature
Kd (PfCSPm [1]): 1300 nM | Kd [2]: 8.6 nM | Kd (PfCSPm [3]): 45.2 nM
